Patent US20110165564, “SEQUENCE-SPECIFIC DETECTION OF METHYLATION IN BIOMOLECULES” (MAX-PLANCK-GESELLSCHAFT ZUR FÖRDERUNG DER …, published 2011)

Molecular target: T1, M.HhaI (DNA cytosine-5 methyltransferase) (Haemophilus haemolyticus, UniProt P05102 P05102:1-327)
T1 sequence: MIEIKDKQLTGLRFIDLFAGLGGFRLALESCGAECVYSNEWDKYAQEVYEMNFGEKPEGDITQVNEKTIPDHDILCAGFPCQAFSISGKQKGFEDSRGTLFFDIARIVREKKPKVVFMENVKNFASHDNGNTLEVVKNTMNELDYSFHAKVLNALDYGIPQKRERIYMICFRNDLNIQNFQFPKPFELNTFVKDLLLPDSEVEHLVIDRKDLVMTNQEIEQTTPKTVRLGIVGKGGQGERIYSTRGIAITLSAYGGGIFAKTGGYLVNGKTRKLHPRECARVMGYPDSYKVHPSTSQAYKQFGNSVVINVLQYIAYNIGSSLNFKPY
Assay: anion exchange HPLC; coupling of aziridine cofactors 1, 2, 3 almost complete; non-covalent M.HhaI-product DNA complex; 10 mM Tris pH 7.4, 50 mM NaCl, 37 C
Method: Solutions (400 μL) of aziridine cofactor 1, 2 or 3 (32 nmol, 80 μM), duplex oligodeoxynucleotide I-II (4 nmol, 10 μM) and M.HhaI (4.4 nmol, 11 μM) in buffer (10 mM Tris hydrochloride, pH 7.4, 50 mM sodium chloride, 0.05 mM ethylenediaminetetraacetic acid and 2 mM β-mercaptoethanol) were incubated at 37° C. The progress of the coupling reactions was monitored by anion exchange HPLC (Poros 10 HQ, 10 μm, 4.6×10 mm, Applied Biosystems). Compounds were eluted with aqueous potassium chloride (0.2 M for 5 min, followed by linear gradients to […], to 0.6 M in 20 min and to 1 M in 5 min) in Tris hydrochloride buffer (10 mM, pH 7.6) at a flow of 4 mL/min. […] These new compounds are assigned to non-covalent protein-DNA complexes between M.HhaI and the coupling products I¹-II, I²-II and I³-II based on their UV absorption ratio at 260 nm and 280 nm.
The presence and functionality of biotin groups in I¹-II, I²-II and I³-II were verified by addition of streptavidin. Residual aziridine cofactors 1, 2 or 3 were first removed from the labelled duplexes I¹-II, I²-II or I³-II by gel filtration using NAP-5 columns (Amersham Biosciences, Freiburg, Germany) according to the instructions of the supplier. Afterwards, streptavidin (25 μg) was added to the solutions (25 μL, 0.25 nmol I¹-II, I²-II or I³-II) and incubation was performed at 37° C. for 30 min.

B1: duplex I-II (hemimethylated) (dsDNA)
DNA 1: TGTCAGCGCATGA
DNA 2: TCATGCGCTGACA
modifications: 5mC at M in lower strand 5'-…-3'
- binding result: binds
